From patent US20170240926 (published 2017)
No end group written: not given here. *: point of attachment. Dansyl = CN(C)c1cccc2c(S(=O)(=O)*)cccc12

Target: FTase (protein farnesyltransferase) (UniProt P49354)

B1: dansyl-TKCAVQ (peptide)
chain: Dansyl-TKCAVQ
- Kd: 13 nM

B2: dansyl-TKCIVA (peptide)
chain: Dansyl-TKCIVA
- Kd: 5 nM

B3: dansyl-TKCNIM (peptide)
chain: Dansyl-TKCNIM
- Kd: 5 nM

B4: dansyl-TKCKIF (peptide)
chain: Dansyl-TKCKIF
- Kd: 2.5 nM

B5: dansyl-TKCTLA (peptide)
chain: Dansyl-TKCTLA
- Kd: 4.4 nM

B6: dansyl-TKCITQ (peptide)
chain: Dansyl-TKCITQ
- Kd: 3.6 nM

B7: dansyl-TKCTLQ (peptide)
chain: Dansyl-TKCTLQ
- Kd: 7 nM

B8: dansyl-TKCSIS (peptide)
chain: Dansyl-TKCSIS
- Kd: 3.4 nM

B9: dansyl-TKCNLQ (peptide)
chain: Dansyl-TKCNLQ
- Kd: 8 nM

B10: dansyl-TKCFLS (peptide)
chain: Dansyl-TKCFLS
- Kd: 19 nM

B11: dansyl-TKCTKF (peptide)
chain: Dansyl-TKCTKF
- Kd: 6 nM

B12: dansyl-TKCLTS (peptide)
chain: Dansyl-TKCLTS
- Kd: 5 nM

B13: dansyl-TKCTLM (peptide)
chain: Dansyl-TKCTLM
- Kd: 5.2 nM

B14: dansyl-TKCTMS (peptide)
chain: Dansyl-TKCTMS
- Kd: 6 nM

B15: dansyl-TKCKIS (peptide)
chain: Dansyl-TKCKIS
- Kd: 4 nM

B16: dansyl-TKCSLM (peptide)
chain: Dansyl-TKCSLM
- Kd: 8 nM

B17: dansyl-TKCLLM (peptide)
chain: Dansyl-TKCLLM
- Kd: 4.7 nM

B18: dansyl-TKCCIF (peptide)
chain: Dansyl-TKCCIF
modifications: cysteine pairing not given here
- Kd: 270 nM

B19: dansyl-TKCLVM (peptide)
chain: Dansyl-TKCLVM
- Kd: 6 nM

B20: dansyl-TKCVVT (peptide)
chain: Dansyl-TKCVVT
- Kd: 7 nM

B21: dansyl-TKCRIS (peptide)
chain: Dansyl-TKCRIS
- Kd: 12 nM

B22: dansyl-TKCSFM (peptide)
chain: Dansyl-TKCSFM
- Kd: 10 nM

B23: dansyl-TKCTII (peptide)
chain: Dansyl-TKCTII
- Kd: 4.2 nM

B24: dansyl-TKCVLA (peptide)
chain: Dansyl-TKCVLA
- Kd: 4.6 nM

B25: dansyl-TKCYPD (peptide)
chain: Dansyl-TKCYPD
- Kd: 3.3 nM

B26: dansyl-TKCLIT (peptide)
chain: Dansyl-TKCLIT
- Kd: 4.1 nM

B27: dansyl-TKCSVS (peptide)
chain: Dansyl-TKCSVS
- Kd: 2.1 nM

B28: dansyl-TKCCIL (peptide)
chain: Dansyl-TKCCIL
modifications: cysteine pairing not given here
- Kd: 300 nM

B29: dansyl-TKCGIM (peptide)
chain: Dansyl-TKCGIM
- Kd: 3.6 nM

B30: dansyl-TKCYVM (peptide)
chain: Dansyl-TKCYVM
- Kd: 12 nM

B31: dansyl-TKCSLC (peptide)
chain: Dansyl-TKCSLC
modifications: cysteine pairing not given here
- Kd: 5 nM

B32: dansyl-TKCVLH (peptide)
chain: Dansyl-TKCVLH
- Kd: 14 nM

B33: dansyl-TKCSLG (peptide)
chain: Dansyl-TKCSLG
- Kd: 3.4 nM

B34: dansyl-TKCSIM (peptide)
chain: Dansyl-TKCSIM
- Kd: 6 nM

B35: dansyl-TKCNLT (peptide)
chain: Dansyl-TKCNLT
- Kd: 3.7 nM
